These results are taken from paper PMC11143768, “Integrin-linked kinase-frizzled 7 interaction maintains cancer stem cells to drive platinum resistance in ovarian cancer” (Journal of Experimental & Clinical Cancer Research : CR, 2024).

In the test the target is T1, recombinant human full length Fzd7 (human, UniProt O75084 33-574).
T1 construct: Frizzled 7 (Fzd7), human, recombinant full length; also called full-length recombinant Fzd7; source: recombinant
In words: co-IP; recombinant human full length Fzd7 mixed in lysis buffer at 1:1 ratio with recombinant human full-length ILK, incubated overnight at 4 °C with anti-Fzd7 Ab; Western blot for ILK and Fzd7. As to conditions: both partners purified.

B1: recombinant human full-length ILK (enzyme, UniProt Q13418 1-452, looked up)
chain: MDDIFTQCREGNAVAVRLWLDNTENDLNQGDDHGFSPLHWACREGRSAVVEMLIMRGARINVMNRGDDTPLHLAASHGHRDIVQKLLQYKADINAVNEHGNVPLHYACFWGQDQVAEDLVANGALVSICNKYGEMPVDKAKAPLRELLRERAEKMGQNLNRIPYKDTFWKGTTRTRPRNGTLNKHSGIDFKQLNFLTKLNENHSGELWKGRWQGNDIVVKVLKVRDWSTRKSRDFNEECPRLRIFSHPNVLPVLGACQSPPAPHPTLITHWMPYGSLYNVLHEGTNFVVDQSQAVKFALDMARGMAFLHTLEPLIPRHALNSRSVMIDEDMTARISMADVKFSFQCPGRMYAPAWVAPEALQKKPEDTNRRSADMWSFAVLLWELVTREVPFADLSNMEIGMKVALEGLRPTIPPGISPHVCKLMKICMNEDPAKRPKFDMIVPILEKMQDK
notes: Integrin-linked kinase (ILK), human, recombinant full length; also called full-length recombinant ILK; source: recombinant
As for B1, the binding result is recorded as “binds”.
